{"source": "IntAct's records for PubMed 20543138", "parents": {"B1": {"name": "General transcription factor 3C polypeptide 5 (Homo sapiens), Q9Y5Q8 (parent)", "chain": "MAAEAADLGLGAAVPVELRRERRMVCVEYPGVVRDVAKMLPTLGGEEGVSRIYADPTKRLELYFRPKDPYCHPVCANRFSTSSLLLRIRKRTRRQKGVLGTEAHSEVTFDMEILGIISTIYKFQGMSDFQYLAVHTEAGGKHTSMYDKVLMLRPEKEAFFHQELPLYIPPPIFSRLDAPVDYFYRPETQHREGYNNPPISGENLIGLSRARRPHNAIFVNFEDEEVPKQPLEAAAQTWRRVCTNPVDRKVEEELRKLFDIRPIWSRNAVKANISVHPDKLKVLLPFIAYYMITGPWRSLWIRFGYDPRKNPDAKIYQVLDFRIRCGMKHGYAPSDLPVKAKRSTYNYSLPITVKKTSSQLVTMHDLKQGLGPSGTSGARKPASSKYKLKDSVYIFREGALPPYRQMFYQLCDLNVEELQKIIHRNDGAENSCTERDGWCLPKTSDELRDTMSLMIRQTIRSKRPALFSSSAKADGGKEQLTYESGEDEEDEEEEEEEEEDFKPSDGSENEMETEILDYV"}}, "data": [{"variants_of": "B1", "conditions": "with mtor_human MTOR", "values": [{"variant": "F109I", "effect of a mutation on the interaction": "disrupting interaction"}]}]}
